Experimental data: the supplement of paper PMC10567573
± gives the standard deviation.

Test: protein stability index of a GFP-peptide fusion (GPS, HEK-293T) (PSI 1-6); higher = more stable
[1] = treatment: DMSO, c terminus: a fixed tail appended
[2] = treatment: MLN4924 1 uM, 8 h, c terminus: a fixed tail appended
[3] = treatment: DMSO, c terminus: native
[4] = treatment: MLN4924 1 uM, 8 h, c terminus: native
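Also: 24-mer peptide tiles fused after GFP, lentivirally expressed, FACS-sorted into six equal bins by GFP/DsRed ratio, decoded by Illumina sequencing, PSI is the read-weighted mean bin number.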

Sequence | protein stability index [1] | protein stability index [2] | protein stability index [3] | protein stability index [4]
QVLNETRSQYEALVETNRREVEQW [KRT34] | 4.3 ± 0.22 | 4.6 ± 0.1 | – | –
QVNRRSAKGNTALHDCAESGSLEI [FEM1A] | 4.56 ± 0.049 | 4.26 ± 0.21 | – | –
QWLQSTSGSQRHMVGQKDSVILSV [TLE6] | 2.12 ± 0.093 | 2.29 ± 0.27 | – | –
QWRIRNLPYPKDVYSVSVDQKERC [DPCD] | 3.32 ± 0.42 | 3.17 ± 0.21 | – | –
RAAAAAAVAAATAAVEGSGGSGGG [KCNA4] | 4.88 ± 0.26 | 4.9 ± 0.28 | – | –
RADQLCQQELRELRRELELLGRER [PRPH] | 3.45 ± 0.17 | 3.37 ± 0.56 | – | –
RAILKPRKVCVGGKRRKDEISVDS [PPP2R2B] | 3.85 ± 0.19 | 4.1 ± 0.12 | – | –
RAKVQPQARKKEMEMRQLQRGPA [CPN1] | – | – | 3.26 ± 0.43 | 3.11 ± 0.18
RAVRQSVTSFPDADAFHHQVHDDD [EMD] | 5.2 ± 0.17 | 5.314 ± 0.044 | – | –
RAWSQCGGGGLRAWSQRSAAGRVC [CPOX] | 2.71 ± 0.077 | 2.88 ± 0.37 | – | –
RCPVTVCGDVHGQFHDLMELFRIG [PPP2CA] | 2.2 ± 0.35 | 2.24 ± 0.14 | – | –
RDIRCSEDEKLCDPNTRPVGEKNC [ADAMTSL2] | 5.18 ± 0.28 | 5.35 ± 0.22 | – | –
RDLPDTPRRFTFYPCVLATEGFTS [TRIM39] | 2.56 ± 0.21 | 2.5 ± 0.2 | – | –
RDMNGKSLDGKAIKVEQATKPSFE [RBMX] | 5.08 ± 0.24 | 5.24 ± 0.27 | – | –
RDRLLNRYRQAGSSGPGNSQNSFL [RPAIN] | 3.36 ± 0.32 | 3.56 ± 0.38 | – | –
RDSESTRHDSETEDMLWDDLLHGP [PHTF1] | 5.49 ± 0.31 | 5.4 ± 0.2 | – | –
REHKETCEMDWSDKMEAYNIDETC [TEKT4] | 5.26 ± 0.19 | 5.14 ± 0.077 | – | –
RERREEDRAPAEQVPRSPVIKISY [PWWP2B] | 4.34 ± 0.34 | 4.08 ± 0.18 | – | –
RESPSFKLEPMETERSPGPRLQEL [ZNF263] | 4.42 ± 0.14 | 4.51 ± 0.2 | – | –
RFNQAILVSRHDPASRRRVVEEVR [LPCAT4] | 3.62 ± 0.25 | 3.59 ± 0.29 | – | –
RFRDFVDALEDSLEEVAVQQTGDD [PBXIP1] | 4.87 ± 0.44 | 4.9 ± 0.27 | – | –
RGDSGRLGLGTRESHSCPQQVPMP [NEK8] | 4.07 ± 0.18 | 4.19 ± 0.28 | – | –
RGGMLSASAETLPAGFRVSTLGTL [PPFIA4] | 3.26 ± 0.14 | 3.57 ± 0.49 | – | –

Sequence | protein stability index [1] | protein stability index [2] | protein stability index [3] | protein stability index [4]
RGGSDPETTGIQIWSEVFTVEKPG [ATL3] | 4 ± 0.59 | 4.09 ± 0.28 | – | –
RGGSLLAGGGGFGGGSLSGGGGSR [KRT15] | 3.32 ± 1.1 | 3.95 ± 0.34 | – | –
RGIHNIQKRYHCKECGKVFSQSAG [ZSCAN9] | 2.58 ± 0.27 | 2.78 ± 0.24 | – | –
RGLSQNLFSNSDHQRDGTLGALHT [SASS6] | 3.87 ± 0.26 | 3.81 ± 0.17 | – | –
RHCPYLDTINRSVLDFDFEKLCSI [USP39] | 2.61 ± 0.23 | 2.56 ± 0.3 | – | –
RIHVLPSLNPDGYEKAYEGGSELG [CPXM2] | 3.93 ± 0.11 | 4.36 ± 0.36 | – | –
RIVHLQETCDLGKIKPEARRYLEK [NLN] | 3.25 ± 0.51 | 3.66 ± 0.67 | – | –
RKGLQHGFFDFETFDVDEYEHYER [CDC14A] | 3.93 ± 0.31 | 3.94 ± 0.41 | – | –
RKQKQELCEKFDYLYGILEERKNE [TRIM55] | 3.72 ± 0.36 | 3.67 ± 0.54 | – | –
RKSLFDDKAVEIEELTYIIKQDIN [STX5] | 2.9 ± 0.18 | 2.76 ± 0.31 | – | –
RKTQKKVPDVKEMEKSSFTEYIES [TAF7L] | 4.43 ± 0.13 | 4.47 ± 0.27 | – | –
RLDKHLYVIGGRNETGYLSSVECY [KLHL14] | 2.28 ± 0.17 | 2.14 ± 0.2 | – | –
RLLLDSGAQVNMPADSFESPLTLA [ANKRD17] | 3.44 ± 0.23 | 3.46 ± 0.41 | – | –
RLQCPFEQELLRRQQRLNQLEKPP [FAM107A] | 3.93 ± 0.33 | 4.14 ± 0.18 | – | –
RNGHAKVVRLLLEHYRVQTQQTGT [FEM1B] | 2.32 ± 0.21 | 2.3 ± 0.28 | – | –
RNLDASPTYKGLLMSLQNQLKESK [CEP70] | 3.19 ± 0.083 | 3.36 ± 0.25 | – | –
RNQTQVLRQQQDEAYLASLRADQE [FAF2] | 5.18 ± 0.32 | 5.17 ± 0.16 | – | –
RPAFVRVRRGHSHLAPSEAKAADS | 4.35 ± 0.1 | 4.45 ± 0.16 | – | –
RPASSGGAHTLVNHGYAEPAAGRE [KCNA3] | 4.7 ± 0.44 | 4.86 ± 0.23 | – | –
RPNSRHTPSFSGDSSSSCSDHCIT [VDR] | 4.52 ± 0.086 | 4.45 ± 0.25 | – | –
RQSVENDIHGLRKVIDDTNITRLQ [KRT18] | 4.17 ± 0.22 | 4.13 ± 0.25 | – | –
RRFNFFVLENNLEAVARHMLIFSL [DNAAF3] | 2.77 ± 0.49 | 2.6 ± 0.47 | – | –
RRGSTPLHMAVERRVRGVVELLLA [RIPK4] | 2.9 ± 0.085 | 2.67 ± 0.045 | – | –

Sequence | protein stability index [1] | protein stability index [2] | protein stability index [3] | protein stability index [4]
RRGWRPSSREDSLEAGLPLQVRGY [CHGA] | 3.42 ± 0.47 | 3.8 ± 0.27 | – | –
RRHRLGGVGAVPGPGTPTGPSLPS [ZBTB22] | 4.25 ± 0.22 | 4.47 ± 0.16 | – | –
RRLYEKKIFEYETQRRRLSPPSSS [EMD] | 3.25 ± 0.26 | 3.35 ± 0.48 | – | –
RRVGGSRILLRMTLGREVMSPLQA [NLN] | 2.15 ± 0.32 | 2.34 ± 0.35 | – | –
RSDADLVVFLSPLTTFQDQLNRRG [OAS1] | 2.27 ± 0.22 | 2.33 ± 0.31 | – | –
RSELVEGCGWRCPEHGDRVAELFC [TRIM14] | 2.86 ± 0.12 | 3.04 ± 0.36 | – | –
RSERKKWIHCFEGVTAIIFCVALS [GNAI1] | 3.21 ± 0.4 | 2.89 ± 0.8 | – | –
RSPRAGAGALLRLPSERLDFSMAE [PRPH] | 4.17 ± 0.17 | 4.21 ± 0.29 | – | –
RSQYEALVETNRREVEQWFATQTE [KRT34] | 4.29 ± 0.25 | 4.33 ± 0.33 | – | –
RSSPDDLKALTRNVNRLNESFRDL [SCARA5] | 3.95 ± 0.34 | 3.88 ± 0.32 | – | –
RTCTAPLDRLKVLMQVHASRSNNM [SLC25A25] | 2.68 ± 0.2 | 2.81 ± 0.21 | – | –
RTHTGEQPYTCSICRRNFSRRSSL [ZNF75A] | 3.19 ± 0.44 | 3.67 ± 0.47 | – | –
RTSLSSGATVRSFSINSRLASSLG [CDC14A] | 2.76 ± 0.34 | 2.99 ± 0.48 | – | –
RTSTFDPSHSDNLLHGLNLLWRKQ [KLHL14] | 2.96 ± 0.17 | 2.94 ± 0.15 | – | –
RVDQDKDKDCSLDCAGSPQKPLCA [SMOC2] | 5.39 ± 0.34 | 5.31 ± 0.32 | – | –
RYISMSVWTSPRRLVELAGQSLLK [PRAME] | 2.89 ± 0.1 | 2.96 ± 1.2 | – | –
RYLADLLPSVFGSLRDSGYFYDPI [RSPH3] | 2.55 ± 0.49 | 2.6 ± 0.66 | – | –
SAGGSRTPAMSSSSSSRVLLRQQL [TFE3] | 3.45 ± 0.24 | 3.32 ± 0.19 | – | –
SASSPASVGDPCGGAICGGPDHRL [SLC25A25] | 4.43 ± 0.23 | 4.58 ± 0.22 | – | –
SATALYRTDYSGRGELSARQMHLA [RAD51] | 3.26 ± 0.19 | 3.33 ± 0.21 | – | –
SDPENWDRKLHSRPRKLYKHSSTS [BTBD10] | 3.77 ± 0.27 | 3.94 ± 0.24 | – | –
SEDRRSRHCPYLDTINRSVLDFDF [USP39] | 3.18 ± 0.074 | 3.44 ± 0.3 | – | –
SEFRALQFSLMLCAFVGALGGAAF [SPNS1] | 3.14 ± 0.048 | 3.04 ± 0.79 | – | –

Sequence | protein stability index [1] | protein stability index [2] | protein stability index [3] | protein stability index [4]
SEKETMQFLNDRLASYLEKVRQLE [KRT33B] | 2.55 ± 0.12 | 2.66 ± 0.28 | – | –
SEYRSDIINAKSNDGWTPLHVAAH [ASB7] | 3.19 ± 0.38 | 3.27 ± 0.11 | – | –
SFPATLETQEQDVDLVQKYLEKYY [MMP1] | 3.82 ± 0.12 | 4.09 ± 0.2 | – | –
SFQPECSMKLTPLVLEVFGNEIS [VDR] | – | – | 2.23 ± 0.33 | 2.41 ± 0.14
SGPEGNLNQIVTEPDANFPQFLHE [FAM104B] | 4.81 ± 0.15 | 4.93 ± 0.16 | – | –
SGRRNWCSYVVTRTISCHVQNGTY [EMID1] | 2.12 ± 0.41 | 1.93 ± 0.37 | – | –
SGTTLISVIVLDINDNAPTFQSSV [PCDHGC5] | 2.96 ± 0.28 | 2.64 ± 0.63 | – | –
SHRSNLIRHQRIHTGEKPYTCHEC [ZNF263] | 3.16 ± 0.26 | 3.49 ± 0.23 | – | –
SIFYDLPQGSGFCLGQLNLEQRSE [SMAD6] | 3.21 ± 0.21 | 3.45 ± 0.25 | – | –
SKLSLLLNDISRKSEGLSGRVLRK [TRIP13] | 2.82 ± 0.28 | 2.82 ± 0.31 | – | –
SKNEDRGEEEAESSISSTSNEQLK [ZMYND11] | 5.33 ± 0.63 | 5.49 ± 0.21 | – | –
SKNLIYRDVKPENFLIGRQGNKKE [CSNK1G1] | 4.26 ± 0.22 | 4.28 ± 0.18 | – | –
SKPKNSVWKRLKSPFRKKKDSVT [RIT1] | – | – | 3.55 ± 0.49 | 3 ± 0.43
SKYVKLNVGGALYYTTMQTLTKQD [KCTD10] | 2.15 ± 0.25 | 2.44 ± 0.33 | – | –
SLFSLLIAAAVYIMDTVGNIWVCY [SLC19A2] | 2.94 ± 0.41 | 3.03 ± 0.72 | – | –
SLIEDLQRELEIPEQQVDMHDMLL [ZNF449] | 3.56 ± 0.35 | 3.51 ± 0.34 | – | –
SLKGSLSVEEQLSLISGCPNIQEA [CRYL1] | 4.18 ± 0.3 | 4.12 ± 0.36 | – | –
SLPRDRVLGFLIENFKGLAIPYLE [VPS39] | 3.24 ± 0.26 | 2.92 ± 0.49 | – | –
SLQTGNHSNGPTDLSMKGGASTTS [NOL4L] | 4.12 ± 0.25 | 4.31 ± 0.27 | – | –
SLSGVMLTDVSPEPLQALLERASA [PRAME] | 3.61 ± 0.4 | 3.51 ± 0.31 | – | –
